Experimental data as given in the supplement of paper PMC10266784.

B1: library; numbered along this chain (parent)
chain: MAAAAAAAAEQQSSNGPVKKSMREKAVERRSVNKEHNSNFKAGYIPIDEDRLHKTGLRGRKGNLAICVIILLFILAVINLIITLVIWAVIRIGPNGCDSMEFHESGLLRFKQVSDMGVIHPLYKSTVGGRRNENLVITGNNQPIVFQQGTTKLSVENNKTSITSDIGMQFFDPRTQNILFSTDYETHEFHLPSGVKSLNVQKASTERITSNATSDLNIKVDGRAIVRGNEGVFIMGKTIEFHMGGNMELKAENSIILNGSVMVSTTRLPSSSSGDQLGSGDWVRYKLCMCADGTLFKVQVTSQNMGCQISDNPCGNTH

Variants of: B1
Assay: SGCB cell-surface expression functional score (HA stain, bin4 vs bin1, normalised to synonymous) (log10 ratio); higher = more cell-surface SGCB (functional)
Protocol: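 Deep mutational scan of full-length human SGCB (YFP-SGCB-HA, NNN codon sublibraries A-F) delivered by lentivirus at low MOI into ADG-HEK293 cells stably expressing SGCA, SGCD and SGCG. YFP-positive cells were stained for surface HA on unpermeabilized cells and FACS-sorted into bins. The functional score is log10(frequency in high bin 4 / frequency in low bin 1), normalised per chunk so that synonymous variants have mean 0 and SD 0.5. Scores are the median over codons and over duplicate biological replicates; scores below -0.5 are called non-functional. Scale: negative means deleterious.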

| Variant | SGCB cell-surface expression functional score (log10) |
| --- | --- |
| MAAAAAAAAEQQSSNGPVKKSMREKAVERRSVHKEHNSNFKAGYIPIDEDRLHKTGLRGRKGNLAICVIILLFILAVINLIITLVIWAVIRIGPNGCDSMEFHESGLLRFKQVSDMGVIHPLYKSTVGGRRNENLVITGNNQPIVFQQGTTKLSVENNKTSITSDIGMQFFDPRTQNILFSTDYETHEFHLPSGVKSLNVQKASTERITSNATSDLNIKVDGRAIVRGNEGVFIMGKTIEFHMGGNMELKAENSIILNGSVMVSTTRLPSSSSGDQLGSGDWVRYKLCMCADGTLFKVQVTSQNMGCQISDNPCGNTH [N33H] | 0.48 |
| MAAAAAAAAEQQSSNGPVKKSMREKAVERRSVCKEHNSNFKAGYIPIDEDRLHKTGLRGRKGNLAICVIILLFILAVINLIITLVIWAVIRIGPNGCDSMEFHESGLLRFKQVSDMGVIHPLYKSTVGGRRNENLVITGNNQPIVFQQGTTKLSVENNKTSITSDIGMQFFDPRTQNILFSTDYETHEFHLPSGVKSLNVQKASTERITSNATSDLNIKVDGRAIVRGNEGVFIMGKTIEFHMGGNMELKAENSIILNGSVMVSTTRLPSSSSGDQLGSGDWVRYKLCMCADGTLFKVQVTSQNMGCQISDNPCGNTH [N33C] | -0.01 |
| MAAAAAAAAEQQSSNGPVKKSMREKAVERRSVGKEHNSNFKAGYIPIDEDRLHKTGLRGRKGNLAICVIILLFILAVINLIITLVIWAVIRIGPNGCDSMEFHESGLLRFKQVSDMGVIHPLYKSTVGGRRNENLVITGNNQPIVFQQGTTKLSVENNKTSITSDIGMQFFDPRTQNILFSTDYETHEFHLPSGVKSLNVQKASTERITSNATSDLNIKVDGRAIVRGNEGVFIMGKTIEFHMGGNMELKAENSIILNGSVMVSTTRLPSSSSGDQLGSGDWVRYKLCMCADGTLFKVQVTSQNMGCQISDNPCGNTH [N33G] | 0.33 |
| MAAAAAAAAEQQSSNGPVKKSMREKAVERRSVFKEHNSNFKAGYIPIDEDRLHKTGLRGRKGNLAICVIILLFILAVINLIITLVIWAVIRIGPNGCDSMEFHESGLLRFKQVSDMGVIHPLYKSTVGGRRNENLVITGNNQPIVFQQGTTKLSVENNKTSITSDIGMQFFDPRTQNILFSTDYETHEFHLPSGVKSLNVQKASTERITSNATSDLNIKVDGRAIVRGNEGVFIMGKTIEFHMGGNMELKAENSIILNGSVMVSTTRLPSSSSGDQLGSGDWVRYKLCMCADGTLFKVQVTSQNMGCQISDNPCGNTH [N33F] | 0.1 |
| MAAAAAAAAEQQSSNGPVKKSMREKAVERRSVDKEHNSNFKAGYIPIDEDRLHKTGLRGRKGNLAICVIILLFILAVINLIITLVIWAVIRIGPNGCDSMEFHESGLLRFKQVSDMGVIHPLYKSTVGGRRNENLVITGNNQPIVFQQGTTKLSVENNKTSITSDIGMQFFDPRTQNILFSTDYETHEFHLPSGVKSLNVQKASTERITSNATSDLNIKVDGRAIVRGNEGVFIMGKTIEFHMGGNMELKAENSIILNGSVMVSTTRLPSSSSGDQLGSGDWVRYKLCMCADGTLFKVQVTSQNMGCQISDNPCGNTH [N33D] | 0.4 |
| MAAAAAAAAEQQSSNGPVKKSMREKAVERRSVAKEHNSNFKAGYIPIDEDRLHKTGLRGRKGNLAICVIILLFILAVINLIITLVIWAVIRIGPNGCDSMEFHESGLLRFKQVSDMGVIHPLYKSTVGGRRNENLVITGNNQPIVFQQGTTKLSVENNKTSITSDIGMQFFDPRTQNILFSTDYETHEFHLPSGVKSLNVQKASTERITSNATSDLNIKVDGRAIVRGNEGVFIMGKTIEFHMGGNMELKAENSIILNGSVMVSTTRLPSSSSGDQLGSGDWVRYKLCMCADGTLFKVQVTSQNMGCQISDNPCGNTH [N33A] | 0.36 |
| MAAAAAAAAEQQSSNGPVKKSMREKAVERRSVEKEHNSNFKAGYIPIDEDRLHKTGLRGRKGNLAICVIILLFILAVINLIITLVIWAVIRIGPNGCDSMEFHESGLLRFKQVSDMGVIHPLYKSTVGGRRNENLVITGNNQPIVFQQGTTKLSVENNKTSITSDIGMQFFDPRTQNILFSTDYETHEFHLPSGVKSLNVQKASTERITSNATSDLNIKVDGRAIVRGNEGVFIMGKTIEFHMGGNMELKAENSIILNGSVMVSTTRLPSSSSGDQLGSGDWVRYKLCMCADGTLFKVQVTSQNMGCQISDNPCGNTH [N33E] | 0.11 |
| MAAAAAAAAEQQSSNGPVKKSMREKAVERRSPNKEHNSNFKAGYIPIDEDRLHKTGLRGRKGNLAICVIILLFILAVINLIITLVIWAVIRIGPNGCDSMEFHESGLLRFKQVSDMGVIHPLYKSTVGGRRNENLVITGNNQPIVFQQGTTKLSVENNKTSITSDIGMQFFDPRTQNILFSTDYETHEFHLPSGVKSLNVQKASTERITSNATSDLNIKVDGRAIVRGNEGVFIMGKTIEFHMGGNMELKAENSIILNGSVMVSTTRLPSSSSGDQLGSGDWVRYKLCMCADGTLFKVQVTSQNMGCQISDNPCGNTH [V32P] | 0.11 |
| MAAAAAAAAEQQSSNGPVKKSMREKAVERRSWNKEHNSNFKAGYIPIDEDRLHKTGLRGRKGNLAICVIILLFILAVINLIITLVIWAVIRIGPNGCDSMEFHESGLLRFKQVSDMGVIHPLYKSTVGGRRNENLVITGNNQPIVFQQGTTKLSVENNKTSITSDIGMQFFDPRTQNILFSTDYETHEFHLPSGVKSLNVQKASTERITSNATSDLNIKVDGRAIVRGNEGVFIMGKTIEFHMGGNMELKAENSIILNGSVMVSTTRLPSSSSGDQLGSGDWVRYKLCMCADGTLFKVQVTSQNMGCQISDNPCGNTH [V32W] | -0.05 |
| MAAAAAAAAEQQSSNGPVKKSMREKAVERRSSNKEHNSNFKAGYIPIDEDRLHKTGLRGRKGNLAICVIILLFILAVINLIITLVIWAVIRIGPNGCDSMEFHESGLLRFKQVSDMGVIHPLYKSTVGGRRNENLVITGNNQPIVFQQGTTKLSVENNKTSITSDIGMQFFDPRTQNILFSTDYETHEFHLPSGVKSLNVQKASTERITSNATSDLNIKVDGRAIVRGNEGVFIMGKTIEFHMGGNMELKAENSIILNGSVMVSTTRLPSSSSGDQLGSGDWVRYKLCMCADGTLFKVQVTSQNMGCQISDNPCGNTH [V32S] | 0.11 |
| MAAAAAAAAEQQSSNGPVKKSMREKAVERRSRNKEHNSNFKAGYIPIDEDRLHKTGLRGRKGNLAICVIILLFILAVINLIITLVIWAVIRIGPNGCDSMEFHESGLLRFKQVSDMGVIHPLYKSTVGGRRNENLVITGNNQPIVFQQGTTKLSVENNKTSITSDIGMQFFDPRTQNILFSTDYETHEFHLPSGVKSLNVQKASTERITSNATSDLNIKVDGRAIVRGNEGVFIMGKTIEFHMGGNMELKAENSIILNGSVMVSTTRLPSSSSGDQLGSGDWVRYKLCMCADGTLFKVQVTSQNMGCQISDNPCGNTH [V32R] | 0.37 |
| MAAAAAAAAEQQSSNGPVKKSMREKAVERRSINKEHNSNFKAGYIPIDEDRLHKTGLRGRKGNLAICVIILLFILAVINLIITLVIWAVIRIGPNGCDSMEFHESGLLRFKQVSDMGVIHPLYKSTVGGRRNENLVITGNNQPIVFQQGTTKLSVENNKTSITSDIGMQFFDPRTQNILFSTDYETHEFHLPSGVKSLNVQKASTERITSNATSDLNIKVDGRAIVRGNEGVFIMGKTIEFHMGGNMELKAENSIILNGSVMVSTTRLPSSSSGDQLGSGDWVRYKLCMCADGTLFKVQVTSQNMGCQISDNPCGNTH [V32I] | 0.36 |
| MAAAAAAAAEQQSSNGPVKKSMREKAVERRSMNKEHNSNFKAGYIPIDEDRLHKTGLRGRKGNLAICVIILLFILAVINLIITLVIWAVIRIGPNGCDSMEFHESGLLRFKQVSDMGVIHPLYKSTVGGRRNENLVITGNNQPIVFQQGTTKLSVENNKTSITSDIGMQFFDPRTQNILFSTDYETHEFHLPSGVKSLNVQKASTERITSNATSDLNIKVDGRAIVRGNEGVFIMGKTIEFHMGGNMELKAENSIILNGSVMVSTTRLPSSSSGDQLGSGDWVRYKLCMCADGTLFKVQVTSQNMGCQISDNPCGNTH [V32M] | -0.13 |
| MAAAAAAAAEQQSSNGPVKKSMREKAVERRSLNKEHNSNFKAGYIPIDEDRLHKTGLRGRKGNLAICVIILLFILAVINLIITLVIWAVIRIGPNGCDSMEFHESGLLRFKQVSDMGVIHPLYKSTVGGRRNENLVITGNNQPIVFQQGTTKLSVENNKTSITSDIGMQFFDPRTQNILFSTDYETHEFHLPSGVKSLNVQKASTERITSNATSDLNIKVDGRAIVRGNEGVFIMGKTIEFHMGGNMELKAENSIILNGSVMVSTTRLPSSSSGDQLGSGDWVRYKLCMCADGTLFKVQVTSQNMGCQISDNPCGNTH [V32L] | -0.06 |
| MAAAAAAAAEQQSSNGPVKKSMREKAVERRSQNKEHNSNFKAGYIPIDEDRLHKTGLRGRKGNLAICVIILLFILAVINLIITLVIWAVIRIGPNGCDSMEFHESGLLRFKQVSDMGVIHPLYKSTVGGRRNENLVITGNNQPIVFQQGTTKLSVENNKTSITSDIGMQFFDPRTQNILFSTDYETHEFHLPSGVKSLNVQKASTERITSNATSDLNIKVDGRAIVRGNEGVFIMGKTIEFHMGGNMELKAENSIILNGSVMVSTTRLPSSSSGDQLGSGDWVRYKLCMCADGTLFKVQVTSQNMGCQISDNPCGNTH [V32Q] | -0.03 |
| MAAAAAAAAEQQSSNGPVKKSMREKAVERRSKNKEHNSNFKAGYIPIDEDRLHKTGLRGRKGNLAICVIILLFILAVINLIITLVIWAVIRIGPNGCDSMEFHESGLLRFKQVSDMGVIHPLYKSTVGGRRNENLVITGNNQPIVFQQGTTKLSVENNKTSITSDIGMQFFDPRTQNILFSTDYETHEFHLPSGVKSLNVQKASTERITSNATSDLNIKVDGRAIVRGNEGVFIMGKTIEFHMGGNMELKAENSIILNGSVMVSTTRLPSSSSGDQLGSGDWVRYKLCMCADGTLFKVQVTSQNMGCQISDNPCGNTH [V32K] | -0.04 |
| MAAAAAAAAEQQSSNGPVKKSMREKAVERRSNNKEHNSNFKAGYIPIDEDRLHKTGLRGRKGNLAICVIILLFILAVINLIITLVIWAVIRIGPNGCDSMEFHESGLLRFKQVSDMGVIHPLYKSTVGGRRNENLVITGNNQPIVFQQGTTKLSVENNKTSITSDIGMQFFDPRTQNILFSTDYETHEFHLPSGVKSLNVQKASTERITSNATSDLNIKVDGRAIVRGNEGVFIMGKTIEFHMGGNMELKAENSIILNGSVMVSTTRLPSSSSGDQLGSGDWVRYKLCMCADGTLFKVQVTSQNMGCQISDNPCGNTH [V32N] | 0.67 |
| MAAAAAAAAEQQSSNGPVKKSMREKAVERRSYNKEHNSNFKAGYIPIDEDRLHKTGLRGRKGNLAICVIILLFILAVINLIITLVIWAVIRIGPNGCDSMEFHESGLLRFKQVSDMGVIHPLYKSTVGGRRNENLVITGNNQPIVFQQGTTKLSVENNKTSITSDIGMQFFDPRTQNILFSTDYETHEFHLPSGVKSLNVQKASTERITSNATSDLNIKVDGRAIVRGNEGVFIMGKTIEFHMGGNMELKAENSIILNGSVMVSTTRLPSSSSGDQLGSGDWVRYKLCMCADGTLFKVQVTSQNMGCQISDNPCGNTH [V32Y] | -0.45 |
| MAAAAAAAAEQQSSNGPVKKSMREKAVERRSTNKEHNSNFKAGYIPIDEDRLHKTGLRGRKGNLAICVIILLFILAVINLIITLVIWAVIRIGPNGCDSMEFHESGLLRFKQVSDMGVIHPLYKSTVGGRRNENLVITGNNQPIVFQQGTTKLSVENNKTSITSDIGMQFFDPRTQNILFSTDYETHEFHLPSGVKSLNVQKASTERITSNATSDLNIKVDGRAIVRGNEGVFIMGKTIEFHMGGNMELKAENSIILNGSVMVSTTRLPSSSSGDQLGSGDWVRYKLCMCADGTLFKVQVTSQNMGCQISDNPCGNTH [V32T] | -0.08 |
